Test results as given in the supplement of paper PMC9112550, “Optimization of the antimicrobial peptide Bac7 by deep mutational scanning” (BMC Biology, 2022).

Tested on: Escherichia coli TOP10
Test: shrunken log2 fold change of peptide-encoding DNA abundance (4.5 h post-induction vs induction); higher = less antimicrobial activity (less host growth inhibition)
Conditions: time post-induction: 4.5 h; library: site-saturation at positions 5, 18, 19, 20
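Further: peptides expressed intracellularly from a pBAD plasmid library in pooled LB shake-flask culture, induced with 0.3% L-arabinose, DNA abundance read by NGS, three biological replicates, DESeq2 with apeglm shrinkage.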

| Sequence | shrunken log2 fold change |
| --- | --- |
| RRIRSRPPRLPRPRPRPKTHPRP | -0.0477 |
| RRIRWRPPRLPRPRPRPYEYPRP | -0.254 |
| RRIRERPPRLPRPRPRPKLEPRP | -0.0117 |
| RRIRYRPPRLPRPRPRPDWKPRP | -0.208 |
| RRIRSRPPRLPRPRPRPPFWPRP | 0.837 |
| RRIRMRPPRLPRPRPRPIDLPRP | -0.00804 |
| RRIRIRPPRLPRPRPRPRCDPRP | -0.0753 |
| RRIRTRPPRLPRPRPRPAPMPRP | 0.202 |
| RRIRYRPPRLPRPRPRPCQHPRP | -0.253 |
| RRIRHRPPRLPRPRPRPPGRPRP | 0.593 |
| RRIRYRPPRLPRPRPRPRMRPRP | 0.667 |
| RRIRKRPPRLPRPRPRPFENPRP | 0.167 |
| RRIRTRPPRLPRPRPRPRDRPRP | 0.19 |
| RRIRYRPPRLPRPRPRPVSRPRP | -0.0816 |
| RRIRNRPPRLPRPRPRPCCRPRP | -0.0438 |
| RRIRCRPPRLPRPRPRPGQCPRP | -0.11 |
| RRIRQRPPRLPRPRPRPQDWPRP | -0.146 |
| RRIRWRPPRLPRPRPRPMTWPRP | 2.14 |
| RRIRKRPPRLPRPRPRPELGPRP | 0.823 |
| RRIRARPPRLPRPRPRPIRMPRP | 0.183 |
| RRIRFRPPRLPRPRPRPISWPRP | -0.132 |
| RRIRLRPPRLPRPRPRPRILPRP | -0.211 |

| Sequence | shrunken log2 fold change |
| --- | --- |
| RRIRYRPPRLPRPRPRPWVFPRP | -0.0309 |
| RRIRARPPRLPRPRPRPAGPPRP | 0.453 |
| RRIRFRPPRLPRPRPRPDVHPRP | -0.179 |
| RRIRLRPPRLPRPRPRPKQFPRP | 0.0426 |
| RRIRPRPPRLPRPRPRPRECPRP | 0.378 |
| RRIRRRPPRLPRPRPRPLCQPRP | -0.00285 |
| RRIRYRPPRLPRPRPRPPKPPRP | 0.144 |
| RRIRERPPRLPRPRPRPVHIPRP | -0.202 |
| RRIRARPPRLPRPRPRPDLRPRP | 0.0309 |
| RRIRMRPPRLPRPRPRPYKVPRP | -0.0176 |
| RRIRFRPPRLPRPRPRPNSYPRP | -0.372 |
| RRIRFRPPRLPRPRPRPVWDPRP | 0.0852 |
| RRIRWRPPRLPRPRPRPTEKPRP | 0.103 |
| RRIRGRPPRLPRPRPRPKWGPRP | 0.215 |
| RRIRFRPPRLPRPRPRPLGWPRP | 0.494 |
| RRIRGRPPRLPRPRPRPDDVPRP | 0.966 |
| RRIRNRPPRLPRPRPRPMNNPRP | -0.749 |
| RRIRGRPPRLPRPRPRPEQDPRP | 1.47 |
| RRIRSRPPRLPRPRPRPKWAPRP | -0.117 |
| RRIRMRPPRLPRPRPRPFHRPRP | -0.114 |
| RRIRMRPPRLPRPRPRPNDAPRP | 0.317 |
| RRIRNRPPRLPRPRPRPNMGPRP | -0.00804 |

| Sequence | shrunken log2 fold change |
| --- | --- |
| RRIRRRPPRLPRPRPRPVLHPRP | 0.0722 |
| RRIRGRPPRLPRPRPRPADYPRP | 0.025 |
| RRIRMRPPRLPRPRPRPTHMPRP | 0.362 |
| RRIRARPPRLPRPRPRPVCLPRP | 0.138 |
| RRIRLRPPRLPRPRPRPTGVPRP | -0.0506 |
| RRIRCRPPRLPRPRPRPIWWPRP | 0.475 |
| RRIRMRPPRLPRPRPRPESYPRP | -0.00254 |
| RRIRPRPPRLPRPRPRPIGMPRP | -0.232 |
| RRIRTRPPRLPRPRPRPFENPRP | -0.0132 |
| RRIRARPPRLPRPRPRPQIFPRP | -0.0149 |
| RRIRHRPPRLPRPRPRPSFVPRP | -0.38 |
| RRIRHRPPRLPRPRPRPYWYPRP | -1.25 |
| RRIRDRPPRLPRPRPRPGVAPRP | 0.76 |
| RRIRPRPPRLPRPRPRPNFYPRP | 0.356 |
| RRIRKRPPRLPRPRPRPGLTPRP | 1.08 |
| RRIRHRPPRLPRPRPRPDYEPRP | 0.00408 |
| RRIRCRPPRLPRPRPRPTALPRP | 0.216 |
| RRIRFRPPRLPRPRPRPGMHPRP | -0.24 |
| RRIRNRPPRLPRPRPRPKECPRP | 0.00801 |
| RRIRRRPPRLPRPRPRPRIVPRP | 0.00997 |
| RRIRYRPPRLPRPRPRPYMFPRP | -0.651 |
| RRIRQRPPRLPRPRPRPYHCPRP | -0.0107 |

| Sequence | shrunken log2 fold change |
| --- | --- |
| RRIRGRPPRLPRPRPRPCQCPRP | 0.268 |
| RRIRQRPPRLPRPRPRPACTPRP | -0.475 |
| RRIRYRPPRLPRPRPRPWGGPRP | 0.011 |
| RRIRKRPPRLPRPRPRPQWYPRP | -0.145 |
| RRIRMRPPRLPRPRPRPQPKPRP | 1.77 |
| RRIRIRPPRLPRPRPRPTEAPRP | -0.153 |
| RRIRMRPPRLPRPRPRPDMNPRP | 2.25 |
| RRIRCRPPRLPRPRPRPYILPRP | -1.53 |
| RRIRTRPPRLPRPRPRPQYTPRP | -0.697 |
| RRIRVRPPRLPRPRPRPDSFPRP | -0.0784 |
| RRIRPRPPRLPRPRPRPTPCPRP | 0.365 |
| RRIRTRPPRLPRPRPRPYESPRP | -0.00247 |
| RRIRHRPPRLPRPRPRPQFMPRP | -0.864 |
| RRIRVRPPRLPRPRPRPLINPRP | -0.354 |
| RRIRQRPPRLPRPRPRPTNKPRP | -0.579 |
| RRIRGRPPRLPRPRPRPHRNPRP | -0.184 |
| RRIRKRPPRLPRPRPRPSQSPRP | 0.28 |
| RRIRDRPPRLPRPRPRPFCVPRP | 0.483 |
| RRIRKRPPRLPRPRPRPHHRPRP | -0.0531 |
| RRIRGRPPRLPRPRPRPGLHPRP | 0.682 |
| RRIRERPPRLPRPRPRPICPPRP | -0.794 |
| RRIRSRPPRLPRPRPRPTFLPRP | -0.0423 |

| Sequence | shrunken log2 fold change |
| --- | --- |
| RRIRYRPPRLPRPRPRPIPQPRP | -0.0934 |
| RRIRSRPPRLPRPRPRPHDSPRP | 0.0375 |
| RRIRYRPPRLPRPRPRPFCGPRP | -0.133 |
| RRIRPRPPRLPRPRPRPNCPPRP | -0.0126 |
| RRIRPRPPRLPRPRPRPCLQPRP | -0.631 |
| RRIRPRPPRLPRPRPRPCFSPRP | -0.304 |
| RRIRVRPPRLPRPRPRPAPEPRP | 0.514 |
| RRIRQRPPRLPRPRPRPSATPRP | 0.0854 |
| RRIRNRPPRLPRPRPRPPKCPRP | 0.189 |
| RRIRYRPPRLPRPRPRPQGHPRP | -0.17 |
| RRIRLRPPRLPRPRPRPTKPPRP | 0.0884 |
| RRIRQRPPRLPRPRPRPADIPRP | -0.01 |
| RRIRLRPPRLPRPRPRPYRKPRP | -0.262 |
| RRIRMRPPRLPRPRPRPFNHPRP | -0.367 |
| RRIRQRPPRLPRPRPRPIVPPRP | 0.053 |
| RRIRPRPPRLPRPRPRPTAYPRP | -0.203 |
| RRIRLRPPRLPRPRPRPEHSPRP | -0.0185 |
| RRIRWRPPRLPRPRPRPVCNPRP | 0.0983 |
| RRIRMRPPRLPRPRPRPYGPPRP | 0.0478 |
| RRIRLRPPRLPRPRPRPGHKPRP | -0.275 |
| RRIRERPPRLPRPRPRPSDAPRP | -0.0474 |
